# From PMC3168947 (Molecular cell, 2011)
# Substitutions are numbered along the chain they refer to. Numbers in names are those of the source.
# B1: E. coli ClpS residues 2-106 (crystals of Schuenemann et al., 2009, re-refined here) (natural protein, UniProt P0A8Q6 2-106, looked up)
# chain: GKTNDWLDFDQLAEEKVRDALKPPSMYKVILVNDDYTPMEFVIDVLQKFFSYDVERATQLMLAVHYQGKAICGVFTAEVAETKVAMVNKYARENEHPLLCTLEKA
# B2: H66A: H66A mutation of ClpS (protein, UniProt P0A8Q6 1-106, looked up, variant H66A)
# ATP-dependent Clp protease …: MGKTNDWLDFDQLAEEKVRDALKPPSMYKVILVNDDYTPMEFVIDVLQKFFSYDVERATQLMLAVAYQGKAICGVFTAEVAETKVAMVNKYARENEHPLLCTLEKA
# B3: ^Q12CClpS: Q12C ClpS variant, FeBABE attached to residue 12 (protein, UniProt P0A8Q6 1-106, looked up, variant Q12C)
# ATP-dependent Clp protease …: B2 ATP-dependent Clp protease … with Q12C, A66H
# modifications: FeBABE attached at Cys12
# B4: ClpS: E. coli ClpS adaptor; folded core (residues 26-106) and N-terminal extension (residues 1-25) (protein, UniProt P0A8Q6 1-106, looked up)
# ATP-dependent Clp protease …: B2 ATP-dependent Clp protease … with A66H
# What was measured:
# [1] = target: ClpA6 (Escherichia coli, UniProt P0A8Q6+P0ABH9, C101S/C73V/E96C); assay type: binding, E. coli
# ClpA6, sequence (P0ABH9 whole entry): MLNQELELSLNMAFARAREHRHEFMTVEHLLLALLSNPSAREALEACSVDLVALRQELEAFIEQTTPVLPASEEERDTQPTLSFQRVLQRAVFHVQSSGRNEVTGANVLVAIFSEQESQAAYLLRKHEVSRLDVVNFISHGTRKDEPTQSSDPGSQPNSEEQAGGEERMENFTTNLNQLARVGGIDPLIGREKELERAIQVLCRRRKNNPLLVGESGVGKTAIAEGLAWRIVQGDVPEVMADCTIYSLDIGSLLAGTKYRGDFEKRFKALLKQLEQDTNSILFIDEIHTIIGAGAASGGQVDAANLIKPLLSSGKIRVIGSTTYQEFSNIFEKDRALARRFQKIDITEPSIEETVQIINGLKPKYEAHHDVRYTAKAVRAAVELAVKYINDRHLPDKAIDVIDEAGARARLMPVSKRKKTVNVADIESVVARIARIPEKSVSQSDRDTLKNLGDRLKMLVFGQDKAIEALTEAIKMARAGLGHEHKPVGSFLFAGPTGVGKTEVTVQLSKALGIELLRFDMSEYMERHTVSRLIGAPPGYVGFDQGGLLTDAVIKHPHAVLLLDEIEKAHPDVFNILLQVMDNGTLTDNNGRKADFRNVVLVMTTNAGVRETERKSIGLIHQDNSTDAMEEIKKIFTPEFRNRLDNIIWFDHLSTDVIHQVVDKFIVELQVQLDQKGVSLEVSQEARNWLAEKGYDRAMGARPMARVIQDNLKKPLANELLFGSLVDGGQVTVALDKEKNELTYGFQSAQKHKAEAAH
# ClpA6, sequence (P0A8Q6 whole entry C73V/E96C/C101S): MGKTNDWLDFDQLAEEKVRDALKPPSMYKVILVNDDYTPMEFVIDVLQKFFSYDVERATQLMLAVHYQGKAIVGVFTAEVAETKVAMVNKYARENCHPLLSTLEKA
# [2] = tested on: ^ΔLClpA6; assay: Binding of ClpS*^F to ^ΔLClpA6, with or without peptide; set-up: species or system E. coli; settings: 20 μM LLYVQRDSKEC; Fig. 3E; in words
# [3] = target: the molecule itself; assay: crystal structure
# [4] = tested on: ClpAP; settings: H66A mutation; in words; ref Wang et al., 2008a; cited from earlier work
# [5] = tested on: ClpA; assay: FeBABE cleavage of ClpA by FeBABE-modified ^Q12CClpS; set-up: species or system E. coli; settings: SDS-PAGE; in words
# [6] = tested on: ClpAP; assay: ClpAPS degradation of YLFVQELA-GFP; assay type: biochemical, E. coli; settings: YLFVQELA-GFP degradation; Vmax = Etotal•kdeg/(1+K2); KM = K1•K2/(1+K2); Fig. 4B
# [7] = tested on: ClpAP; settings: ref Dougan et al., 2002; cited from earlier work
molecule,measurement,setting,value
LLYVQRDSKEC,"ClpA6 bound ClpS*^F more tightly, fold","[1]; excess peptide, compared with MLYVQRDSKEC peptide or absence of ligand",at least 9 fold
same,Kapp of ClpA6 for ClpS*^F in presence of peptide,"[1]; fluorescence anisotropy, 200 nM ClpS*^F, 20 μM peptide, ATPγS, Fig. 3A",< 20 nM
same,enhancement of ClpS*^F binding to ^ΔLClpA6 by N-end-rule peptide,[2],enhanced binding of ClpS*^F to ClpA6 but not to ^ΔLClpA6
B1,binding result,[3],binds
B2,KM and Vmax for ClpAP degradation of N-end-rule substrates,[4],increased KM and reduced Vmax
B3,FeBABE cleavage requirement,[5],cleavage of ClpA required FeBABE-modified ^Q12CClpS and ATPγS
B4,"K2 (unimolecular engagement step, global fit)",[6],0.37
same,degradation by ClpAP,[7],does not degrade
